Test results as given in article doi:10.1101/2023.01.30.525828, “A versatile synaptotagmin-1 nanobody provides perturbation-free live synaptic imaging and low linkage-error in super-resolution microscopy” (bioRxiv, 2023).

How the values were obtained:
[1] = target: T1, desthio-biotinilated Syt-1(97-421) (Rattus norvegicus (Rat)., UniProt P21707, desthiobiotin (conjugated with desthiobiotin-N-hydroxysuccinimide ester)); test: ELISA; phage ELISA: desthio-biotinilated Syt-1(97-421) immobilised overnight at 4°C on MaxiSorp plate; 25 μl phage supernatant in 5% skim milk PBS-T, 1 h RT; detected with anti-M13-HRP; settings: one partner purified
T1 construct: Synaptotagmin 1, rat, cytosolic domain, amino acids 97-421; The phage-display methods also print Syt-1(197-421) for this antigen; also called rSyt-1(97-421); immobilized cytosolic rSyt-1(97-421); source: E. coli NEB-Express, purified (Ni beads, SUMO protease elution), conjugated to desthiobiotin-NHS ester

[2] = target: T2, full-length rat Syt-1 fused to EGFP (Rattus norvegicus (Rat)., UniProt P21707); test: immunostaining of cells or tissue; COS-7 cells transfected with Syt1-EGFP, fixed with 4% PFA, permeabilised; 50 nM fluorescent nanobody, 2 h RT; settings: one partner purified
T2 construct: Synaptotagmin 1, rat, full length; also called Syt1-EGFP; source: COS-7, transiently transfected, in fixed cells

[3] = target: T3, cytosolic (amino acids 97-421) domain of rat Syt-1 (Rattus norvegicus (Rat)., UniProt P21707); test: far-Western, overlay or dot blot; dot blot: ~1 μg target protein spotted on nitrocellulose; NbA51 or NbA91 labeled with AbberiorStar635p at 5 nM in 5% milk PBS-Tween20, 1 h; settings: both partners purified
T3 construct: Synaptotagmin 1, rat, cytosolic domain, amino acids 97-421; also called rSyt-1(97-421); Syt-1(97-421); source: E. coli NEB-Express, purified (Ni beads, eluted on column with SUMO protease)

[4] = target: T3, cytosolic (amino acids 97-421) domain …; test: MST; NbSyt1 labelled with Alexa647 in MST buffer with 0.05 % Tween, incubated with dilutions of purified Syt-1(97-421); NT.115Pico Monolith; settings: both partners purified

T3 sequence (P21707 97-421): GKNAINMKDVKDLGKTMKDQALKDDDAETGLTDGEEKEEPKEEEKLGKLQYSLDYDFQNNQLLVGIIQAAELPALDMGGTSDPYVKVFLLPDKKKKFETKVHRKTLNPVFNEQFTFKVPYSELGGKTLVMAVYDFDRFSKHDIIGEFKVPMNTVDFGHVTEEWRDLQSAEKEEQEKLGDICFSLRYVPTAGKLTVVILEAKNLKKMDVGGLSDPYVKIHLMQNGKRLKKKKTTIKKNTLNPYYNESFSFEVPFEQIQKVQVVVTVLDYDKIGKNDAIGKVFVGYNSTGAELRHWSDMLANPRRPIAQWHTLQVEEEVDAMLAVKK
T2 sequence (P21707 whole entry, the tested form may be a part): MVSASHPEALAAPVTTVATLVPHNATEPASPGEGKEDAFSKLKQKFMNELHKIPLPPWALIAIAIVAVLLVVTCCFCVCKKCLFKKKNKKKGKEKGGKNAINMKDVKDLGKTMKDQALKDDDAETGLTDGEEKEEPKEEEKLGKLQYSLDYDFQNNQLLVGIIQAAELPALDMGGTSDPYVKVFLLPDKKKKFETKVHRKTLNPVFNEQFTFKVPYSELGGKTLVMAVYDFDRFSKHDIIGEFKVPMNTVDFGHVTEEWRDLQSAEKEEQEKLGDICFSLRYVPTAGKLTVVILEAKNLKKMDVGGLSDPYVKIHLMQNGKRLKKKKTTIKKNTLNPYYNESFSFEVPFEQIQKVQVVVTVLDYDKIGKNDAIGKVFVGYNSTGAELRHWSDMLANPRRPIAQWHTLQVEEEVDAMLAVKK
T1 sequence (P21707 97-421): as the sequence (P21707 97-421) above

B1: clone A91 displayed on phage (VHH)
VHH: EVQLVESGGGLVQPGGSLRLSCVASGFPFSKYFMSWVRQAPGKGLEWVSTISSSGSTTTYTESVKGRFTISRDNAKNTLYLQMNNLKPEDTAVYYCEKGSWAPNNARGQGTQVS
notes: alpaca nanobody clone A91; One of the five clones positive in the phage ELISA; the fusion partner on the phage is surmised from the phagemid; also called NbA91
[1]
  binding result: binds

B2: NbA91 directly labeled with AbberiorStar635p (VHH)
VHH: B1 VHH
notes: alpaca nanobody clone A91; with one or two ectopic cysteines (at the C-terminus or at N- and C-termini); also called Nb-Ab635p
[2]
  binding result: binds
[3]
  binding result: binds

B3: NbSyt1 labelled with Alexa647 (VHH)
VHH: EVQLEESGGGLVRPGGSLRLSCAASGFPFSKYFMSWVRQAPGKGLEWVSTISASGNYETYTESVKGRFTIARDNAKNTLYLQMNSLKPEDTAVYYCAKGSWARDMTRGQGTQVTVSS
notes: also called Fluorescent NbSyt1; source: E. coli SHuffle Express (NEB), purified (Ni beads, SUMO protease elution), labelled with maleimide fluorophore
[4]
  Kd: 0.7 ± 0.3 nM
